In IntAct's records for PubMed 9819391:

Tests used:
[1] = molecular target: crk_human CRK (UniProt P46108)
[2] = molecular target: src_chick SRC (UniProt P00523)
[3] = molecular target: src_chick SRC (UniProt P00523); remark: listed apart in the source

crk_human CRK, sequence (P46108 whole entry): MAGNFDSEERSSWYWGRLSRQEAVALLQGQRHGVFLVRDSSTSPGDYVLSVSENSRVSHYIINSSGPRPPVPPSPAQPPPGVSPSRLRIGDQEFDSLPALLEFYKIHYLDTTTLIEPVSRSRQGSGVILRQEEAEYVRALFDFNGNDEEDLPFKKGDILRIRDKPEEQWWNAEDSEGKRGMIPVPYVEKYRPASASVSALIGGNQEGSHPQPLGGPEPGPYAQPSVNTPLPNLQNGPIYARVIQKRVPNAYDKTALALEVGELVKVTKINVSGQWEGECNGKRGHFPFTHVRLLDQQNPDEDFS
Arf-GAP with SH3 domain, ANK repeat and PH domain-containing protein 1 (Mus musculus), Q9QWY8-1 R811A, sequence (Q9QWY8 whole entry R811A, the tested form may be a part): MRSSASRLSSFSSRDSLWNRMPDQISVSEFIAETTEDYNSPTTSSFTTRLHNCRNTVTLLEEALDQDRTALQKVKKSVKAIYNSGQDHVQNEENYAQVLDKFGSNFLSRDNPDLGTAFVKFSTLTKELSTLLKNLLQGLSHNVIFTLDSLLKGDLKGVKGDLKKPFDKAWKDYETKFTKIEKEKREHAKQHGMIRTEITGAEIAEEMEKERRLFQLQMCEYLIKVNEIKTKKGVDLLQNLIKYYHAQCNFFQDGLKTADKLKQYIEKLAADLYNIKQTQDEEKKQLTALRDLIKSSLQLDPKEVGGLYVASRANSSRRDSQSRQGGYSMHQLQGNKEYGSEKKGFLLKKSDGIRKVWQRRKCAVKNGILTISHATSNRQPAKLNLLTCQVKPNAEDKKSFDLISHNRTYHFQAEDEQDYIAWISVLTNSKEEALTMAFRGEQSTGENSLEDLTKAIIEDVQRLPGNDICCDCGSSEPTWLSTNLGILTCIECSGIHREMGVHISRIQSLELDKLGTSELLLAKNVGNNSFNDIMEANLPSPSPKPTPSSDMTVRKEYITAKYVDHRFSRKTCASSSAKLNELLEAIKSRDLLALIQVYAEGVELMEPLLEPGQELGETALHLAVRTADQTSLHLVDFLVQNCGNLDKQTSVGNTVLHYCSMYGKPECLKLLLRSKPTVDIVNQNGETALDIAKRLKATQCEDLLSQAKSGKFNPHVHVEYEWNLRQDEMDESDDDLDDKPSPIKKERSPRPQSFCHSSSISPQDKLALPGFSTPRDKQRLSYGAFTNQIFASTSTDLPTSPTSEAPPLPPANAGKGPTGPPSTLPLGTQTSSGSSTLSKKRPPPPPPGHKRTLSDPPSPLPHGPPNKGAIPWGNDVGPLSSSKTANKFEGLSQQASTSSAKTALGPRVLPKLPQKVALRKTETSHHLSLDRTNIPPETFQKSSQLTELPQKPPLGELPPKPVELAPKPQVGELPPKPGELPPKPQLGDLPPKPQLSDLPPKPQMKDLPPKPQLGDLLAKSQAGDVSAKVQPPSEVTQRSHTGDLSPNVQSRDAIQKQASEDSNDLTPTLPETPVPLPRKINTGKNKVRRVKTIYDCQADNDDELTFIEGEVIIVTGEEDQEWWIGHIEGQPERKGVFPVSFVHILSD
Arf-GAP with SH3 domain, ANK repeat and PH domain-containing protein 1 (Mus musculus), Q9QWY8-1 P910A;P913A, sequence (Q9QWY8 whole entry P910A/P913A, the tested form may be a part): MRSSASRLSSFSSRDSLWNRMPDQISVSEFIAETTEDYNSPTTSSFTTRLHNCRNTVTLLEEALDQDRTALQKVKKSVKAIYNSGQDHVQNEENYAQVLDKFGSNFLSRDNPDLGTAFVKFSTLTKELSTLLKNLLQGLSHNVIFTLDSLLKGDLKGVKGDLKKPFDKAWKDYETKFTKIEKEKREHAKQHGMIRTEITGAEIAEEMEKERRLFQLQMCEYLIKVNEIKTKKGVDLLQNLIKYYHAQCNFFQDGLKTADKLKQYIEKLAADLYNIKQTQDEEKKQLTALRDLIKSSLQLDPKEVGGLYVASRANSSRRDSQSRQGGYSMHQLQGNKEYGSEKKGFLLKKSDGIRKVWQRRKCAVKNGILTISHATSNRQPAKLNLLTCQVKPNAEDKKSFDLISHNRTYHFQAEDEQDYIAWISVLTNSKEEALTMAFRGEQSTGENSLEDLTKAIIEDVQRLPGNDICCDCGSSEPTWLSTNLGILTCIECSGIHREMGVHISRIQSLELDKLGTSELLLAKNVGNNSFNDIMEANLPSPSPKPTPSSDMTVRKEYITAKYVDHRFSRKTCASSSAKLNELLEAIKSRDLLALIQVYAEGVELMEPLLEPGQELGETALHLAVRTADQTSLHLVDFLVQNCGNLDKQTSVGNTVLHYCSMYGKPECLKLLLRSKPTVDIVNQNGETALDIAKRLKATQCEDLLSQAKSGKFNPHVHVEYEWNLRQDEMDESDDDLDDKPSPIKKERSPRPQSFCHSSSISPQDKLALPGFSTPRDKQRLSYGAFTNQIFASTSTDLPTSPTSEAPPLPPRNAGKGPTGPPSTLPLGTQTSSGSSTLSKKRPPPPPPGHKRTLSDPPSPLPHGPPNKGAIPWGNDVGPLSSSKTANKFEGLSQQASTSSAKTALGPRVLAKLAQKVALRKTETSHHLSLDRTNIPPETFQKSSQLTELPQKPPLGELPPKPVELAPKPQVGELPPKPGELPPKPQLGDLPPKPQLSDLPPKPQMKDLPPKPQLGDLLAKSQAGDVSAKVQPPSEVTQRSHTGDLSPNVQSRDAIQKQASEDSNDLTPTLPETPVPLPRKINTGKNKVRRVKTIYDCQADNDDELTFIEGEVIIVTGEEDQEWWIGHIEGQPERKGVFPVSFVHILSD
Arf-GAP with SH3 domain, ANK repeat and PH domain-containing protein 1 (Mus musculus), Q9QWY8-1 R811A;P910A;P913A, sequence (Q9QWY8 whole entry R811A/P910A/P913A, the tested form may be a part): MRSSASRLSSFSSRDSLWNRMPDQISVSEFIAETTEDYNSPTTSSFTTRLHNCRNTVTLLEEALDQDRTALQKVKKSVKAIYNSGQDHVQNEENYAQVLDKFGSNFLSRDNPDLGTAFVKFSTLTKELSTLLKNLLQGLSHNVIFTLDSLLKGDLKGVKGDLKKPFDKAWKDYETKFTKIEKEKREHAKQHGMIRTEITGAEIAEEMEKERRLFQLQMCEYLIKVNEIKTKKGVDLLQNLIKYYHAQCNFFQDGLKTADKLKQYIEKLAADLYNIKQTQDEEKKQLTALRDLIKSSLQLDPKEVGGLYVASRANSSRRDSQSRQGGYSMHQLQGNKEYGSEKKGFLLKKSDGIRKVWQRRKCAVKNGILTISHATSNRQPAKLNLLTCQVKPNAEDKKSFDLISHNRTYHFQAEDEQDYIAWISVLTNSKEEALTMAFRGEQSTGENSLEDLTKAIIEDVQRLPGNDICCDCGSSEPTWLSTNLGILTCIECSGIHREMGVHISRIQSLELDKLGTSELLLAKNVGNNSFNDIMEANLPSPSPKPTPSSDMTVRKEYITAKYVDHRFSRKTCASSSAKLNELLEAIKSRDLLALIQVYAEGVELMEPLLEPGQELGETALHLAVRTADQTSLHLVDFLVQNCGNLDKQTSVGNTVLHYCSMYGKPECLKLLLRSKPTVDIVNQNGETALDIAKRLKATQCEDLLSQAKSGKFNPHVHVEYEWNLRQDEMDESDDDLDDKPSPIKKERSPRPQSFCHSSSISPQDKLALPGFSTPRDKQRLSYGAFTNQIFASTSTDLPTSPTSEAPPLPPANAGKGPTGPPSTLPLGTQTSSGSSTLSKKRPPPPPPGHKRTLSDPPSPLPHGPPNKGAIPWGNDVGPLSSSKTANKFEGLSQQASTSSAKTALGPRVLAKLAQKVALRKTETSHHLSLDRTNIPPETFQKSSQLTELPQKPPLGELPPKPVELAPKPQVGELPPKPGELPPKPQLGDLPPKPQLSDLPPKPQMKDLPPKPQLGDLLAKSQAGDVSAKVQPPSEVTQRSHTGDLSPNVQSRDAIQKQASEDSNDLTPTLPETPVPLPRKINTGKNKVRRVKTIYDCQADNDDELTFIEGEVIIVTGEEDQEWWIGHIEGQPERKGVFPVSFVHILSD
Arf-GAP with SH3 domain, ANK repeat and PH domain-containing protein 1 (Mus musculus), Q9QWY8-2 R811A;P849A;P853A, sequence (Q9QWY8 other isoform, or with tags, fused parts or gaps R811A;P849A;P853A): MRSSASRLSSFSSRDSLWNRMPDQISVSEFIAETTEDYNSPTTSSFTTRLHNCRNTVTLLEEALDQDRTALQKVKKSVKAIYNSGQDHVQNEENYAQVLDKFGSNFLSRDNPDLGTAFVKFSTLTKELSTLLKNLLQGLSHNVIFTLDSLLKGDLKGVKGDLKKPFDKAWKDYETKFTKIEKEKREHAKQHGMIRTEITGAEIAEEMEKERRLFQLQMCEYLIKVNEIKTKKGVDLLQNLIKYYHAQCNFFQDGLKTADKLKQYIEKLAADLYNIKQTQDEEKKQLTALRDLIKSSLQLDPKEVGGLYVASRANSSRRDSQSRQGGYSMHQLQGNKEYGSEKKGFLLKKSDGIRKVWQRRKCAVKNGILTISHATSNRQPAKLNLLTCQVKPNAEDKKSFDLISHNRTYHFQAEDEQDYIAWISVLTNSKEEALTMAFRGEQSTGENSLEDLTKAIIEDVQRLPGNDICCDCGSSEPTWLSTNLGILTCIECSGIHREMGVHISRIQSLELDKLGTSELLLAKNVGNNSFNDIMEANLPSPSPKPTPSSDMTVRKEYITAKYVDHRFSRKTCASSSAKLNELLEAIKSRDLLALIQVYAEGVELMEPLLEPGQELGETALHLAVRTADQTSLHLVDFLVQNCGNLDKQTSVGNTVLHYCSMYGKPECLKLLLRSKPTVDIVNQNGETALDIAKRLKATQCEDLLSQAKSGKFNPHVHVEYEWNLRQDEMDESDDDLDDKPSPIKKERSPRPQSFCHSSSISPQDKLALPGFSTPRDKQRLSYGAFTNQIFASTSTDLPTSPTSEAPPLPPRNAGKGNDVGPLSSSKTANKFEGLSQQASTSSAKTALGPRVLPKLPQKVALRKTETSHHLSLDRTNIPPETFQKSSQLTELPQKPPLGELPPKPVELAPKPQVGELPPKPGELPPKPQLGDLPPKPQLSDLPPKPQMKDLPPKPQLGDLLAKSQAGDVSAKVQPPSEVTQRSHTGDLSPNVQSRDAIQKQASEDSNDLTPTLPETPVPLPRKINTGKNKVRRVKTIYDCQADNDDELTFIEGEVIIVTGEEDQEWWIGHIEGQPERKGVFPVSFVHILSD

Substance	effect of a mutation on the interaction [1]	effect of a mutation on the interaction [2]	effect of a mutation on the interaction [3]
Arf-GAP with SH3 domain, ANK repeat and PH domain-containing protein 1 (Mus musculus), Q9QWY8-1 P910A;P913A	decreasing interaction	decreasing interaction	
Arf-GAP with SH3 domain, ANK repeat and PH domain-containing protein 1 (Mus musculus), Q9QWY8-1 R811A	decreasing interaction	decreasing interaction	
Arf-GAP with SH3 domain, ANK repeat and PH domain-containing protein 1 (Mus musculus), Q9QWY8-1 R811A;P910A;P913A	disrupting interaction		
Arf-GAP with SH3 domain, ANK repeat and PH domain-containing protein 1 (Mus musculus), Q9QWY8-2 R811A;P849A;P853A			disrupting interaction
